Source: article PMC5431086, “The Rational Design of Therapeutic Peptides for Aminopeptidase N using a Substrate-Based Approach” (Scientific Reports, 2017)
pIC50, pKi: −log10 of the molar value.

Molecular target: recombinant human aminopeptidase N (hAPN) (human) (UniProt P15144)
Assay: enzyme inhibition assay (competition with the fluorogenic substrate H-Ala-AMC); 0.1 μM APN, 100 μM H-Ala-AMC, 100 mM Tris pH 7.2, Brij 35 0.0002% w/v, 37 °C, triplicate; inhibition competitive, Ki from the IC50 by the Cheng-Prusoff equation

Row | pKi | pIC50 | Substance
1 | < 3.30 | – | cyc-nHSPW (peptide)
2 | – | < 3.30 | nDQIY (peptide)
3 | – | 5.19 | nHSPW (peptide)
